Laboratory results reported in ChEMBL document CHEMBL1137310, “Stereoselective chemoenzymatic synthesis of the four stereoisomers of l-2-(2-carboxycyclobutyl)glycine and pharmacological characterization at human excitatory amino acid transporter subtypes 1, 2, and 3” (J Med Chem, 2006).

How the values were obtained:
Format in all cases: functional, cell-based
[1] = substrate: N[C@@H](CCC(=O)O)C(=O)O; assay: (§1) Substrate activity at human EAAT1 expressed in HEK293 cells by FLIPR membrane potential assay
[2] = substrate: N[C@H](C(=O)O)[C@H]1CC[C@@H]1C(=O)O; assay: as §1
[3] = substrate: N[C@H](C(=O)O)[C@@H]1CC[C@H]1C(=O)O; assay: as §1
[4] = substrate: N[C@@H](CCC(=O)O)C(=O)O; assay: (§2) Substrate activity at human EAAT3 expressed in HEK293 cells by FLIPR membrane potential assay
[5] = substrate: N[C@H](C(=O)O)[C@H]1CC[C@@H]1C(=O)O; assay: as §2

| Protein | Km [1] [µM] | Km [2] [µM] | Km [3] [µM] | Km [4] [µM] | Km [5] [µM] |
| --- | --- | --- | --- | --- | --- |
| Excitatory amino acid transporter 1 (Homo sapiens), P43003 (protein) MTKSNGEEPKMGGRMERFQQGVRKRTLLAKKKVQNITKEDVKSYLFRNAFVLLTVTAVIVGTILGFTLRPYRMSYREVKYFSFPGELLMRMLQMLVLPLIISSLVTGMAALDSKASGKMGMRAVVYYMTTTIIAVVIGIIIVIIIHPGKGTKENMHREGKIVRVTAADAFLDLIRNMFPPNLVEACFKQFKTNYEKRSFKVPIQANETLVGAVINNVSEAMETLTRITEELVPVPGSVNGVNALGLVVFSMCFGFVIGNMKEQGQALREFFDSLNEAIMRLVAVIMWYAPVGILFLIAGKIVEMEDMGVIGGQLAMYTVTVIVGLLIHAVIVLPLLYFLVTRKNPWVFIGGLLQALITALGTSSSSATLPITFKCLEENNGVDKRVTRFVLPVGATINMDGTALYEALAAIFIAQVNNFELNFGQIITISITATAASIGAAGIPQAGLVTMVIVLTSVGLPTDDITLIIAVDWFLDRLRTTTNVLGDSLGAGIVEHLSRHELKNRDVEMGNSVIEENEMKKPYQLIAQDNETEKPIDSETKM | 7.9 | 300 | 96 | – | – |
| Excitatory amino acid transporter 3 (Homo sapiens), P43005 (protein) MGKPARKGCEWKRFLKNNWVLLSTVAAVVLGITTGVLVREHSNLSTLEKFYFAFPGEILMRMLKLIILPLIISSMITGVAALDSNVSGKIGLRAVVYYFCTTLIAVILGIVLVVSIKPGVTQKVGEIARTGSTPEVSTVDAMLDLIRNMFPENLVQACFQQYKTKREEVKPPSDPEMNMTEESFTAVMTTAISKNKTKEYKIVGMYSDGINVLGLIVFCLVFGLVIGKMGEKGQILVDFFNALSDATMKIVQIIMCYMPLGILFLIAGKIIEVEDWEIFRKLGLYMATVLTGLAIHSIVILPLIYFIVVRKNPFRFAMGMAQALLTALMISSSSATLPVTFRCAEENNQVDKRITRFVLPVGATINMDGTALYEAVAAVFIAQLNDLDLGIGQIITISITATSASIGAAGVPQAGLVTMVIVLSAVGLPAEDVTLIIAVDWLLDRFRTMVNVLGDAFGTGIVEKLSKKELEQMDVSSEVNIVNPFALESTILDNEDSDTKKSYVNGGFAVDKSDTISFTQTSQF | – | – | – | 9.9 | 300 |
